Results reported in PMC9482650, “Quantitative fragmentomics allow affinity mapping of interactomes” (Nature Communications, 2022).

Legend:
Test in all cases: holdup assay
Parameters in all cases: key: below the threshold = too weak to quantify, mostly under pKd 3.1 to 4
[1] = molecular target: MAGI2_4, Q86UL8
[2] = molecular target: DLG4_3, P78352
[3] = molecular target: Inadl_2, Q8NI35
[4] = molecular target: T1, PCLO, Q9Y6V0
T1 sequence (Q9Y6V0 4491-4600, limits assumed, looked up): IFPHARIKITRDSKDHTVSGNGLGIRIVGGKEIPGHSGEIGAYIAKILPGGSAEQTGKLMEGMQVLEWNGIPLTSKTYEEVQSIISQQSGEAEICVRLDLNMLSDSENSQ

[5] = molecular target: T2, PDZD2_2, O15018
T2 sequence (O15018 329-429, limits assumed, looked up): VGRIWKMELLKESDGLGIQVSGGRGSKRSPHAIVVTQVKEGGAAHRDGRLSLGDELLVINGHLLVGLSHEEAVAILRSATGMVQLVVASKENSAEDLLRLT

[6] = molecular target: T3, NHERF3_4, Q5T2W1
T3 sequence (Q5T2W1 373-468, limits assumed, looked up): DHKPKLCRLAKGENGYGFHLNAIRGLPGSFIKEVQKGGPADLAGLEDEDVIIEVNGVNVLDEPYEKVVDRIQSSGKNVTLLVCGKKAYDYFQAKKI

[7] = molecular target: LAP2, Q96RT1
[8] = molecular target: GRIP2_6, Q9C0E4
[9] = molecular target: T4, PDZD7_3, Q9H5P4
T4 sequence (Q9H5P4 857-944, limits assumed, looked up): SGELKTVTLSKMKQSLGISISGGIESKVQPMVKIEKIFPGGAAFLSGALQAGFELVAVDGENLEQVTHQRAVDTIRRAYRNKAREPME

[10] = molecular target: CASK, O14936
[11] = molecular target: FRMPD2_2, Q68DX3
[12] = molecular target: FRMPD2_1, Q68DX3
[13] = molecular target: FRMPD2_3, Q68DX3
[14] = molecular target: T5, GRIP1_4, Q9Y3R0
T5 sequence (Q9Y3R0 467-571, limits assumed, looked up): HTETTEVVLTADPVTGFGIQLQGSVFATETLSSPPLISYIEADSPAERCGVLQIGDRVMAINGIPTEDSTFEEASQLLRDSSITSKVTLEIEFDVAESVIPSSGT

[15] = molecular target: T6, LIN7B, Q9HAP6
T6 sequence (Q9HAP6 88-185, limits assumed, looked up): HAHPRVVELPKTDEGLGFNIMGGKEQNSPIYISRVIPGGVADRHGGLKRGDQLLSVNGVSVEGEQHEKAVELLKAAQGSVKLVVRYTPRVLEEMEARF

[16] = molecular target: LNX1_1, Q8TBB1
[17] = molecular target: T7, MPP6, Q9NZW5
T7 sequence (Q9NZW5 125-219, limits assumed, looked up): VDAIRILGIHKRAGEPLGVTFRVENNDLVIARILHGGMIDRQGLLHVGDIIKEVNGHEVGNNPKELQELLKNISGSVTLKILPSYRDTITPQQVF

[18] = molecular target: GRIP2_7, Q9C0E4
[19] = molecular target: GIPC2, Q8TF65
[20] = molecular target: LNX1_3, Q8TBB1
[21] = molecular target: T8, RADIL, Q96JH8
T8 sequence (Q96JH8 971-1071, limits assumed, looked up): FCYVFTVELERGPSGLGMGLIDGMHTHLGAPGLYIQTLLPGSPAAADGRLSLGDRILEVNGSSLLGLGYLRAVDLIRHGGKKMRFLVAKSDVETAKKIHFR

[22] = molecular target: T9, APBA1_2, Q02410
T9 sequence (Q02410 742-832, limits assumed, looked up): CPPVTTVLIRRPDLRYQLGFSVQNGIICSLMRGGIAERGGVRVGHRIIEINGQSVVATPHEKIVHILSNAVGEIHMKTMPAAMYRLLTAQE

[23] = molecular target: GORASP1, Q9BQQ3
[24] = molecular target: T10, MPP7, Q5T2T1
T10 sequence (Q5T2T1 134-230, limits assumed, looked up): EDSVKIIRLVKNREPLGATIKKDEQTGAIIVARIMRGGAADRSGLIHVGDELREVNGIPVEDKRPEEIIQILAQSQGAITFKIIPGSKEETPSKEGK

[25] = molecular target: MAGI1_2, Q96QZ7
[26] = molecular target: DLG1_1, Q12959
[27] = molecular target: T11, GRIP1_3, Q9Y3R0
T11 sequence (Q9Y3R0 247-346, limits assumed, looked up): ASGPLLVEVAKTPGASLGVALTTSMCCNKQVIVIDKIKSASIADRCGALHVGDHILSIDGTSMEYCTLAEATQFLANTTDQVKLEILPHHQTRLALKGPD

[28] = plain residues with an end cap or a label only (N-terminal biotin on a linker: ttds)
[29] = plain residues with an end cap or a label only (N-terminal biotin on a linker: ado-ado)
[30] = plain residues with an end cap or a label only (N-terminal biotin on a linker: ahx)

GRIP2_7, Q9C0E4, sequence (Q9C0E4 934-1023): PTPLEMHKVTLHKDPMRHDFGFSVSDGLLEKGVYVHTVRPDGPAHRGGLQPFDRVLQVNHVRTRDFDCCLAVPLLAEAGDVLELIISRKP
GIPC2, Q8TF65, sequence (Q8TF65 112-203): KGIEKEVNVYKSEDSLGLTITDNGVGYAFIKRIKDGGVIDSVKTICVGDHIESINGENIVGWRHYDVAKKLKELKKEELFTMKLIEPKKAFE
GRIP2_6, Q9C0E4, sequence (Q9C0E4 648-740): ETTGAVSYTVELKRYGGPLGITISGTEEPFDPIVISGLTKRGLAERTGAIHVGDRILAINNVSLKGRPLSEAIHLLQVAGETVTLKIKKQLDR
CASK, O14936, sequence (O14936 487-570): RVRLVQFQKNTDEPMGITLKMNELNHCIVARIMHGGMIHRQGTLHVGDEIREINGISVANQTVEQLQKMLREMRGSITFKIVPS
DLG4_3, P78352, sequence (P78352 306-403): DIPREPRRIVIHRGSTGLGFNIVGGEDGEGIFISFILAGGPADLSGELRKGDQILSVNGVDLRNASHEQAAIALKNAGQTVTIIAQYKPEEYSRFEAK
FRMPD2_2, Q68DX3, sequence (Q68DX3 944-1038): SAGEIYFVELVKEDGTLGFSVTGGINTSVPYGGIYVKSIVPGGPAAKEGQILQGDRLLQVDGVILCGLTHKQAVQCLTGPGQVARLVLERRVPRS
LNX1_3, Q8TBB1, sequence (Q8TBB1 500-596): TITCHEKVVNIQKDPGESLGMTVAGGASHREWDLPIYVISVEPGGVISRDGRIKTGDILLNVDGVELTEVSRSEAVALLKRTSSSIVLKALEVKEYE
FRMPD2_3, Q68DX3, sequence (Q68DX3 1073-1166): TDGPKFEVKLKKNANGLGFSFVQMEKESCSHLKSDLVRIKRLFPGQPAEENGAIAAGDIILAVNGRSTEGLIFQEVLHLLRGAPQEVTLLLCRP
MAGI1_2, Q96QZ7, sequence (Q96QZ7 456-580): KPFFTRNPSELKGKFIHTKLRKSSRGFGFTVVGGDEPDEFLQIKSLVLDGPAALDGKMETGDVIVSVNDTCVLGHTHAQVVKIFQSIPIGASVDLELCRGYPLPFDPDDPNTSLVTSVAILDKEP
LNX1_1, Q8TBB1, sequence (Q8TBB1 261-371): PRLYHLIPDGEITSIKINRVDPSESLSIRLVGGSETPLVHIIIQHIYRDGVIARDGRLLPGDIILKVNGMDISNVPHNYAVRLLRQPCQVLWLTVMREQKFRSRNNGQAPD
FRMPD2_1, Q68DX3, sequence (Q68DX3 770-861): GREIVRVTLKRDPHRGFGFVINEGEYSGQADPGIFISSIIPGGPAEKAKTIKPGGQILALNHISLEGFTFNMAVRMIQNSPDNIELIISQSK
MAGI2_4, Q86UL8, sequence (Q86UL8 772-865): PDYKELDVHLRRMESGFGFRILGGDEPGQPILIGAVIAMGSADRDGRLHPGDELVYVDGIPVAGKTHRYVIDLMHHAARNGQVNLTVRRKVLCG
GORASP1, Q9BQQ3, sequence (Q9BQQ3 1-208): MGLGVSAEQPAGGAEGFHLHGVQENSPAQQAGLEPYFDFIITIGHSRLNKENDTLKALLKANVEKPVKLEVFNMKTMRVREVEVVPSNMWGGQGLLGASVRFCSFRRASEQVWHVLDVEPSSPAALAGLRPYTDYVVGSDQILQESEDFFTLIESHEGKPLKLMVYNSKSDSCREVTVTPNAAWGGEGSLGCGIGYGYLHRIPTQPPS
Inadl_2, Q8NI35, sequence (Q8NI35 238-335): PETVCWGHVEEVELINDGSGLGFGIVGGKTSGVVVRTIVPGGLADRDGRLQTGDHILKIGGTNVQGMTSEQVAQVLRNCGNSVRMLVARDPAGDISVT
LAP2, Q96RT1, sequence (Q96RT1 other isoform, or with tags, fused parts or gaps): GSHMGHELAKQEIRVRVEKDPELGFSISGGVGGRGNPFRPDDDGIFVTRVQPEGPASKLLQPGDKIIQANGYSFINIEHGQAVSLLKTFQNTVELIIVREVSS

Binder: DPLTPSRSQL [DGKK, Q5KSL6]
- pKd [1, 28]: below the threshold
- pKd [2, 28]: below the threshold
- pKd [3, 28]: below the threshold
- pKd [4, 28]: below the threshold
- pKd [5, 28]: below the threshold
- pKd [6, 28]: below the threshold
- pKd [7, 28]: below the threshold
- pKd [8, 28]: below the threshold
- pKd [9, 28]: below the threshold
- pKd [10, 28]: below the threshold
- pKd [11, 28]: below the threshold
- pKd [12, 28]: below the threshold
- pKd [13, 28]: below the threshold
- pKd [14, 28]: below the threshold
- pKd [15, 28]: below the threshold
- pKd [16, 28]: below the threshold
- pKd [17, 28]: below the threshold
- pKd [18, 28]: 3.64
- pKd [19, 28]: below the threshold
- pKd [20, 28]: below the threshold
- pKd [21, 28]: below the threshold
- pKd [22, 28]: 3.71
- pKd [23, 28]: below the threshold
- pKd [24, 28]: below the threshold
- pKd [25, 28]: below the threshold
- pKd [26, 28]: 4.01
- pKd [27, 28]: below the threshold

Binder: QKNKDKEYYV [NRXN3_rs746444206, Q9Y4C0]
- pKd [1, 29]: 3.54
- pKd [2, 29]: below the threshold
- pKd [3, 29]: 4.92
- pKd [4, 29]: below the threshold
- pKd [5, 29]: 4.5
- pKd [6, 29]: below the threshold
- pKd [7, 29]: below the threshold
- pKd [8, 29]: 4.02
- pKd [9, 29]: below the threshold
- pKd [10, 29]: 3.55
- pKd [11, 29]: 3.62
- pKd [12, 29]: 3.69
- pKd [13, 29]: 4.23
- pKd [14, 29]: below the threshold
- pKd [15, 29]: 3.59
- pKd [16, 29]: below the threshold
- pKd [17, 29]: 4.43
- pKd [18, 29]: 4.8
- pKd [19, 29]: below the threshold
- pKd [20, 29]: 3.99
- pKd [21, 29]: 4.51
- pKd [22, 29]: 4.02
- pKd [23, 29]: 4.12
- pKd [24, 29]: 4.79
- pKd [25, 29]: below the threshold
- pKd [26, 29]: below the threshold
- pKd [27, 29]: below the threshold

Binder: HSGSYLVTSV [APC, P25054]
- pKd [1, 30]: 4.17
- pKd [2, 30]: 4.5
- pKd [3, 30]: below the threshold
- pKd [4, 30]: below the threshold
- pKd [5, 30]: 4.43
- pKd [6, 30]: below the threshold
- pKd [7, 30]: 4.87
- pKd [8, 30]: below the threshold
- pKd [9, 30]: 5.11
- pKd [10, 30]: below the threshold
- pKd [11, 30]: 4.61
- pKd [12, 30]: below the threshold
- pKd [13, 30]: below the threshold
- pKd [14, 30]: below the threshold
- pKd [15, 30]: below the threshold
- pKd [16, 30]: 4.45
- pKd [17, 30]: below the threshold
- pKd [18, 30]: below the threshold
- pKd [19, 30]: below the threshold
- pKd [20, 30]: below the threshold
- pKd [21, 30]: 4.23
- pKd [22, 30]: 4.03
- pKd [23, 30]: 3.61
- pKd [24, 30]: below the threshold
- pKd [25, 30]: 4.05
- pKd [26, 30]: 4.6
- pKd [27, 30]: below the threshold
